Where a chain is given by its changes, count along the chain named. Read-outs that look alike come from different tables or passages of the source.
B1: h6E6-058 (antibody, human IgG1, V domains shown)
VH: EVQLVESGGGLVKPGGSLRLSCAASGFTFSVYGLSWVRQAPGKGLEWVSTISSGGGYTQYAPSVKGRFTISRDNAKNSLYLQMNSLRAEDTAVYYCARHPRDFSYAFDYWGQGTTVTVSS
VL: EIVMTQSPATLSVSPGERATLSCKASQDVGHYLAWYQQKPGQAPRLLIYWASTRATGIPARFSGSGSGTEFTLTISSLQSEDFAVYYCQQYNIYPWTFGQGTKVEIK
notes: human IgG1; also called clone 58
B2: h6E6-116 (antibody, human IgG1, V domains shown)
VH: B1 VH with V31T, L34V, Q59H, P62G, F107L
VL: B1 VL with K24R
notes: human IgG1; Alexa647 conjugate in flow cytometry
B3: h6E6-107 (antibody, human IgG1, V domains shown)
VH: B1 VH with V31T, L34A, Q59H, F107L
VL: B1 VL with L33V
notes: human IgG1; also called clone 107
B4: h6E6-063 (antibody, human IgG1, V domains shown)
VH: B1 VH with V31A, L34T, Q59Y, P62A, F107I
VL: B1 VL with K24R
notes: human IgG1; also called clone 63
B5: h6E6-070 (antibody, human IgG1, V domains shown)
VH: B1 VH with V31Q, L34H, Q59H, P62H, F107N
VL: B1 VL with K24R
notes: human IgG1; Alexa647 conjugate in flow cytometry; also called clone 70
B6: h6E6-116 anti-human ROR2 chimeric antigen receptor (other, not shown: small tags and cut ends)
chain: EVQLVESGGGLVKPGGSLRLSCAASGFTFSTYGVSWVRQAPGKGLEWVSTISSGGGYTHYAGSVKGRFTISRDNAKNSLYLQMNSLRAEDTAVYYCARHPRDFSYALDYWGQGTTVTVSSEIVMTQSPATLSVSPGERATLSCRASQDVGHYLAWYQQKPGQAPRLLIYWASTRATGIPARFSGSGSGTEFTLTISSLQSEDFAVYYCQQYNIYPWTFGQGTKVEIK
notes: Expressed on transfected Jurkat cells

Assays:
human ROR2 [1] = target: T1, human ROR2 (human, UniProt Q01974 34-403, limits assumed); assay: SPR
Procedure, shortened: (§1)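 Using surface plasmon resonance, the dissociation constant (Kd, nM) was determined for binding of humanized anti-human ROR2 monoclonal antibodies to human ROR2. These antibodies carry murine complementarity-determining regions in human acceptor frameworks and a human IgG1 constant region. No antigen format, concentrations, temperature, buffer or replicate count is stated.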

human ROR2 [2] = target: T1, human ROR2; assay: SPR; remark: listed apart in the source
Procedure, shortened: as §1

[3] = target: T2, recombinant human ROR2 H349R (human, UniProt Q01974 34-403); assay: dot blot of arrayed recombinant proteins (key on the sheet)
T2 construct: Human residue replaced with the mouse residue

[4] = target: T3, recombinant mouse ROR2 (extracellular portion) (mouse, UniProt Q9Z138 34-403); assay: as above
T3 construct: also called mROR2

[5] = target: T4, recombinant human ROR2 D354E (human, UniProt Q01974 34-403); assay: as above
recombinant ROR1 [6] = target: T5, recombinant ROR1 (Homo sapiens (Human), UniProt Q01973 30-406); assay: as above
[7] = target: T2, recombinant human ROR2 H349R; assay: dot blot on nylon membrane, anti-human IgG-HRP
[8] = target: T3, recombinant mouse ROR2 (extracellular …); assay: dot blot on nylon membrane, anti-human IgG-HRP
[9] = target: T4, recombinant human ROR2 D354E; assay: dot blot on nylon membrane, anti-human IgG-HRP
recombinant ROR1 [10] = target: T5, recombinant ROR1; assay: dot blot on nylon membrane, anti-human IgG-HRP
ROR1-Ig = target: T6, ROR1-Ig (human, UniProt Q01973 30-406); assay: flow cytometry, ROR1-Ig then anti-human IgG-PE, Jurkat cells transfected with the CAR
T6 construct: extracellular domain; also called control ROR1-Ig; not shown: CH2-CH3 constant region domains of human IgG1 (same human IgG domains as ROR2-Ig)
Protocol: All cells were assessed after 48 hours by flow cytometry for binding of recombinant human ROR2-Ig protein comprised of the ROR2 extracellular domain and the CH2-CH3 constant region domains of human IgG1. Cells were stained on ice for 20 minutes with 1 μg/ml of recombinant ROR2-Ig (upper panel) or 1 μg/ml of control ROR1-Ig (lower panel). washed, stained for an additional 20 minutes on ice with phycoerythrin (PE)-conjugated anti-human IgG1 antibody, washed and analyzed by flow cytometry. Shaded histograms depict the relative fluorescence intensity (x axis) of viable cells, as determined by light scatter characteristics, stained with either ROR2-Ig or ROR1-Ig compared to cells stained with the anti-human IgG1-PE antibody only (open histograms). […] Conversely, ROR1 CAR transfected cells bind only to ROR1-Ig.

T3 sequence (Q9Z138 other isoform, or with tags, fused parts or gaps limits assumed): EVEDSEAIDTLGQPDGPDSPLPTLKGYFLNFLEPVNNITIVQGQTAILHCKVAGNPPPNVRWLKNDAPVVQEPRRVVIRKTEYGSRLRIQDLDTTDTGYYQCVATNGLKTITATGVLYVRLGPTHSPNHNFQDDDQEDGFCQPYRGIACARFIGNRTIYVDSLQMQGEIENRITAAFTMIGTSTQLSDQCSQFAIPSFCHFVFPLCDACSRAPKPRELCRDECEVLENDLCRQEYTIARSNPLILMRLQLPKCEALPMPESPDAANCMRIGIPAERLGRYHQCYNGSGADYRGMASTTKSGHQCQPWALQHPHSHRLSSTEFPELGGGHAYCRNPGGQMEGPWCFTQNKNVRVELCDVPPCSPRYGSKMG
T1 sequence (Q01974 34-403 limits assumed): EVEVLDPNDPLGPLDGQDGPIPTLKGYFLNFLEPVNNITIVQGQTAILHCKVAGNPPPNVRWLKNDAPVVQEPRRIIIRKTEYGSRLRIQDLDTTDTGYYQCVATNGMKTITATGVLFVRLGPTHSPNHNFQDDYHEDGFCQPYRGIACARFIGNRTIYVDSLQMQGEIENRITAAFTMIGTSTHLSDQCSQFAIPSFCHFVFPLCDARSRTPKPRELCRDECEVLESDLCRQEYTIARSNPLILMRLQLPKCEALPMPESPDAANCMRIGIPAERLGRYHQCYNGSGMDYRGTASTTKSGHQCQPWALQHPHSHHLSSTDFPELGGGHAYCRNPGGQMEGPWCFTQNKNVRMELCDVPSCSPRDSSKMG
T2 sequence (Q01974 34-403 H349R limits assumed): as the sequence (Q01974 34-403 limits assumed) above, with H316R counted along it
T5 sequence (Q01973 30-406 limits assumed): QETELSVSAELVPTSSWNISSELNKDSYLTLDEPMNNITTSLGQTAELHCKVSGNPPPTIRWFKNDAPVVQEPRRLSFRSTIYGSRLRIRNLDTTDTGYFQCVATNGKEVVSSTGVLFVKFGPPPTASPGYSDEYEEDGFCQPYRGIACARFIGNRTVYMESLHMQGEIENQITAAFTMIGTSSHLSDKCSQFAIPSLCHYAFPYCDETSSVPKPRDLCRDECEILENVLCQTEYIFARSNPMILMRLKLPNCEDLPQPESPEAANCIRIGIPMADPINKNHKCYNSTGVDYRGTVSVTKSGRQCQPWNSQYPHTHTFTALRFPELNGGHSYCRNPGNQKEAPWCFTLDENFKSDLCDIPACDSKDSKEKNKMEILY
T4 sequence (Q01974 34-403 D354E limits assumed): as the sequence (Q01974 34-403 limits assumed) above, with D321E counted along it
T6 sequence (Q01973 30-406): as the sequence (Q01973 30-406 limits assumed) above

Binder	Kd (human ROR2 [1]) [nM]	Kd (human ROR2 [2]) [nM]	binding result [3]	binding result [4]	binding result [5]	binding result (recombinant ROR1 [6])	binding result [7]	binding result [8]	binding result [9]	binding result (recombinant ROR1 [10])	binding result (ROR1-Ig)
B1	0.187	0.187	no binding	no binding	no binding	no binding	–	–	–	–	–
B2	0.348	0.348	–	–	–	–	no binding	no binding	no binding	no binding	–
B3	0.422	0.422	–	–	–	–	no binding	no binding	no binding	no binding	–
B4	0.475	0.475	no binding	no binding	no binding	no binding	–	–	–	–	–
B5	0.165	0.165	–	no binding	–	–	no binding	–	no binding	no binding	–
B6	–	–	–	–	–	–	–	–	–	–	no binding (tested: 1 ug/ml)

— patent US20260209348A1 (University of California, published 2026)
